Assay results reported in the supplement of paper PMC10065799, “High-throughput profiling of sequence recognition by tyrosine kinases and SH2 domains using bacterial peptide display” (eLife, 2023).

What was measured:
[1] = system: AncSZ; assay: phosphorylation enrichment, bacterial display (enrichment ratio); higher = better substrate or ligand; peptides without Tyr show the background
[2] = biological target: EPHB1 (UniProt P54762); assay: as above
[3] = biological target: EPHB2 (UniProt P29323); assay: as above
[4] = biological target: FGFR1 (UniProt P11362); assay: as above
[5] = biological target: FGFR3 (UniProt P22607); assay: as above
[6] = system: Fer (mouse); assay: as above
[7] = biological target: Fes (UniProt P07332); assay: as above
[8] = biological target: Fyn (UniProt P06241); assay: as above
[9] = biological target: Hck (UniProt P08631); assay: as above
[10] = biological target: Jak2 (UniProt O60674); assay: as above
[11] = biological target: MERTK (UniProt Q12866); assay: as above
[12] = system: c-Abl (mouse); assay: as above
[13] = system: c-Src; assay: as above
[14] = biological target: Grb2 SH2 (UniProt P62993); assay: SH2 binding enrichment of the phosphorylated peptide, bacterial display (enrichment ratio); higher = better substrate or ligand; peptides without Tyr show the background
[15] = biological target: SHP2-C SH2; assay: as above
[16] = biological target: c-Src SH2; assay: as above
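Wherever SH2 binding enrichment of the phosphorylated peptide, bacterial display is given: peptide library displayed on the E. coli surface as eCPX fusions, selected cells deep-sequenced, score is each peptide's frequency after selection divided by its frequency in the input.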
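Wherever phosphorylation enrichment, bacterial display is given: 11-residue human phosphosite peptides and single-mutation variants displayed on the E. coli surface, counted by deep sequencing, each peptide's frequency after selection divided by its frequency in the unselected input library; frequency after pTyr selection over input frequency; kinase dosed for 20-30% of maximal phosphorylation in three min.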

Fes, sequence (P07332 whole entry, looked up): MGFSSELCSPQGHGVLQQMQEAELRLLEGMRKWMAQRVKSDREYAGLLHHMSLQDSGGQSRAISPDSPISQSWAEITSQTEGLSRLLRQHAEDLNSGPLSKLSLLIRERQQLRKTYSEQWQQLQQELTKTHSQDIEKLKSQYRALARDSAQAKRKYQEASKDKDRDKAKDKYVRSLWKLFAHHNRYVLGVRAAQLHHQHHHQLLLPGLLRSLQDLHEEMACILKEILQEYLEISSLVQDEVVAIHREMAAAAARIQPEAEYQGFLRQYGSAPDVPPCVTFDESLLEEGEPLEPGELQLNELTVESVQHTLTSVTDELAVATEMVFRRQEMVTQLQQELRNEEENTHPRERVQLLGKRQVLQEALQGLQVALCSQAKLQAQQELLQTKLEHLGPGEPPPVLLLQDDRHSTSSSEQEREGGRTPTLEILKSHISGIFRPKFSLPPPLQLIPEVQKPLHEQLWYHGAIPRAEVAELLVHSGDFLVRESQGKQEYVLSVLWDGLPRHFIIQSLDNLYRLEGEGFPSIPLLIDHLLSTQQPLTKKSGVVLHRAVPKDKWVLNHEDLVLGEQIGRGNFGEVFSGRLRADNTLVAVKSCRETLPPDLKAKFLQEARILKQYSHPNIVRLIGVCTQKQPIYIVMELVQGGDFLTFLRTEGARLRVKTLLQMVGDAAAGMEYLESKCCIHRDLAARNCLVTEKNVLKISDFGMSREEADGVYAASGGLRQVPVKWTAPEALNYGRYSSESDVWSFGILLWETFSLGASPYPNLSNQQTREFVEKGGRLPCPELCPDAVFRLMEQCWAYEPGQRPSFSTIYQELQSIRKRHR
FGFR1, sequence (P11362 whole entry, looked up): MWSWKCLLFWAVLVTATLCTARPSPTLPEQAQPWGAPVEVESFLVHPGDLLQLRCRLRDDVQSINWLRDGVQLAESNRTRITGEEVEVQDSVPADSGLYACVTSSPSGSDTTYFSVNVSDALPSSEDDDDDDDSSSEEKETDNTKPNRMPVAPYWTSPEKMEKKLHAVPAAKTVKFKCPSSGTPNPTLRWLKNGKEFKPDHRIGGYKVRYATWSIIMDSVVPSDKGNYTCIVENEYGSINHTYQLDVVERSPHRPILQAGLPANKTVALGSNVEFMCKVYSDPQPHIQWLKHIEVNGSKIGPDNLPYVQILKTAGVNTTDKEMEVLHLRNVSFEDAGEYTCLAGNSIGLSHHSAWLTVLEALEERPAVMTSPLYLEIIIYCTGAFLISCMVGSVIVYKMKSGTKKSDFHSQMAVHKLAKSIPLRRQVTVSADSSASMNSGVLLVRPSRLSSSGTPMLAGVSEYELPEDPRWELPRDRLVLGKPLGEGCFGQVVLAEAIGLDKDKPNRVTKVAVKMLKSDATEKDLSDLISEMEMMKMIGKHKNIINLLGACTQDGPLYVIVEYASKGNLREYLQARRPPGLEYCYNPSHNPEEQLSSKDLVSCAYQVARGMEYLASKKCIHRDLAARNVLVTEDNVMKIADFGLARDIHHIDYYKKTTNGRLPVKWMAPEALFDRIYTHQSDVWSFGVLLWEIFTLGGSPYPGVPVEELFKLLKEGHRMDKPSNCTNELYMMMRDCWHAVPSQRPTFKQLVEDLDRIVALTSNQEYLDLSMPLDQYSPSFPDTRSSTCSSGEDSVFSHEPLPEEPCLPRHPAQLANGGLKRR
EPHB2, sequence (P29323 whole entry, looked up): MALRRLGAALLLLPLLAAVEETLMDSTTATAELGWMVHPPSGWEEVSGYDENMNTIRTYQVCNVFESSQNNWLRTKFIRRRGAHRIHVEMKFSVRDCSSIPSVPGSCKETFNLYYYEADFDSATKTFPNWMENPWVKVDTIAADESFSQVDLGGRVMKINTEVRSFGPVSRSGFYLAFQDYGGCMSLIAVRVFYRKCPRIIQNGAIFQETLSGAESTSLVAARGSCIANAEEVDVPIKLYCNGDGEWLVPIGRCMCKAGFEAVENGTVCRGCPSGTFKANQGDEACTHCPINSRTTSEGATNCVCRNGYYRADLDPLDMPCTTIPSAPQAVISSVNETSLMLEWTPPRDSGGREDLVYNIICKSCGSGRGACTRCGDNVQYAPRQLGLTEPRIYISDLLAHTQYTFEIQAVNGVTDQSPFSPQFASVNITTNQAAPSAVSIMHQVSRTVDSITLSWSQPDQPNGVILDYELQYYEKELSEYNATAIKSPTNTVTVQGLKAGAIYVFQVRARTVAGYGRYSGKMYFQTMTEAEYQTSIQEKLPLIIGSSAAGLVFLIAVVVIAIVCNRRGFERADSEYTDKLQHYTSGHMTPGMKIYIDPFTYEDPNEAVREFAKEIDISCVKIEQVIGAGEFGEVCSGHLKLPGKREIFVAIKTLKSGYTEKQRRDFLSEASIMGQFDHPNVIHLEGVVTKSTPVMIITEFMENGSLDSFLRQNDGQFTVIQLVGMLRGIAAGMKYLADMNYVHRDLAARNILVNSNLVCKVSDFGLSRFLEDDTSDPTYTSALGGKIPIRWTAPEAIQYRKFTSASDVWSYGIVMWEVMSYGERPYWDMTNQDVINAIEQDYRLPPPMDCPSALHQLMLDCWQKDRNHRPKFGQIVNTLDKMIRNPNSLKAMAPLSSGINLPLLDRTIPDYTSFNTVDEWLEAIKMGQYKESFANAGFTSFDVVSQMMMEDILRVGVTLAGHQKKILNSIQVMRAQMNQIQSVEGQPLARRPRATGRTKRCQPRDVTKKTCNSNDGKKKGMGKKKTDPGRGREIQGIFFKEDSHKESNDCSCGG
FGFR3, sequence (P22607 whole entry, looked up): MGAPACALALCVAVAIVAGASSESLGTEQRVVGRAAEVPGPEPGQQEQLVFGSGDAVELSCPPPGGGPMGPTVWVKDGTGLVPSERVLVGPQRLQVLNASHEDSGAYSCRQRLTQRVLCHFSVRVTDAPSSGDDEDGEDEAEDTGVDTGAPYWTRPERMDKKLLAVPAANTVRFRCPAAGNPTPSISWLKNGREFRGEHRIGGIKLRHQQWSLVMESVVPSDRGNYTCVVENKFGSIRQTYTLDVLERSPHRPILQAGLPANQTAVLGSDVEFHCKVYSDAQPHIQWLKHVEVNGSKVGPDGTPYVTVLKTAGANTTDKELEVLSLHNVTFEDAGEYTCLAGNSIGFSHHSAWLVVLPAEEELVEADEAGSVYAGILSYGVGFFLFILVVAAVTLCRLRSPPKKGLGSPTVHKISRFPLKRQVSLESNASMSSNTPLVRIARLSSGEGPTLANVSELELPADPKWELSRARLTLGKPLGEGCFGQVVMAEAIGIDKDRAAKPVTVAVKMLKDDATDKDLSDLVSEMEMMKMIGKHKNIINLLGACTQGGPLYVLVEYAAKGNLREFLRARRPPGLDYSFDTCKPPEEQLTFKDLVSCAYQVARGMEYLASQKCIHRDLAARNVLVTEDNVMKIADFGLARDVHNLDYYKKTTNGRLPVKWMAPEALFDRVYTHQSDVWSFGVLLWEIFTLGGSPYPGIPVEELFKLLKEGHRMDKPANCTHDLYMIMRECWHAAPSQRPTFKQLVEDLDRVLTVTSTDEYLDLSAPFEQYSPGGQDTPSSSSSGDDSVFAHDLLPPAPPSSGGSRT
EPHB1, sequence (P54762 whole entry, looked up): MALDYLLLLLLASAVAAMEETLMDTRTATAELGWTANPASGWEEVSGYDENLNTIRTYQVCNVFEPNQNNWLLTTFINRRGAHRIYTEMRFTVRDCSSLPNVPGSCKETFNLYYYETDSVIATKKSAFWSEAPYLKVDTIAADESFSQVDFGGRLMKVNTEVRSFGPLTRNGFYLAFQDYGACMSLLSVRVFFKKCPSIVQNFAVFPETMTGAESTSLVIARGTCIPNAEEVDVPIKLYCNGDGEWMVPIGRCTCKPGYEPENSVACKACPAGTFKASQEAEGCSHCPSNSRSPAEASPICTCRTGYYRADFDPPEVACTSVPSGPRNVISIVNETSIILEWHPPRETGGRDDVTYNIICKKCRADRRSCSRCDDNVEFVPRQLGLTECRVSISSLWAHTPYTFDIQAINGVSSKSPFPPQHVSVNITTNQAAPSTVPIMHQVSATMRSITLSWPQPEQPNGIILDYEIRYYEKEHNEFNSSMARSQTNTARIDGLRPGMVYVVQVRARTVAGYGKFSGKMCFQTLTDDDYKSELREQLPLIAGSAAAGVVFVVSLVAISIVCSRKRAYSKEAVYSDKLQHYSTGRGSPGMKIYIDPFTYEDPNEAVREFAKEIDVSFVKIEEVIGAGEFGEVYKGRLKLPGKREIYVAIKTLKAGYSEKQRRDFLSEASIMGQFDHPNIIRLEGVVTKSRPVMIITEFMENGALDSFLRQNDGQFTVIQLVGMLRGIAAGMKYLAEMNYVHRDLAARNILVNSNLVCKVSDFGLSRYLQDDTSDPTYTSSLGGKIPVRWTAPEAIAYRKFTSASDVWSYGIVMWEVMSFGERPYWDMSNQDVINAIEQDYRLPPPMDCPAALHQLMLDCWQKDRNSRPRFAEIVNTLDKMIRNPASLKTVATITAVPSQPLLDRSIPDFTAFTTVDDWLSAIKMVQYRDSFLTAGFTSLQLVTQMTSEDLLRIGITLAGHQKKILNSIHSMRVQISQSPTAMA
Fyn, sequence (P06241 whole entry, looked up): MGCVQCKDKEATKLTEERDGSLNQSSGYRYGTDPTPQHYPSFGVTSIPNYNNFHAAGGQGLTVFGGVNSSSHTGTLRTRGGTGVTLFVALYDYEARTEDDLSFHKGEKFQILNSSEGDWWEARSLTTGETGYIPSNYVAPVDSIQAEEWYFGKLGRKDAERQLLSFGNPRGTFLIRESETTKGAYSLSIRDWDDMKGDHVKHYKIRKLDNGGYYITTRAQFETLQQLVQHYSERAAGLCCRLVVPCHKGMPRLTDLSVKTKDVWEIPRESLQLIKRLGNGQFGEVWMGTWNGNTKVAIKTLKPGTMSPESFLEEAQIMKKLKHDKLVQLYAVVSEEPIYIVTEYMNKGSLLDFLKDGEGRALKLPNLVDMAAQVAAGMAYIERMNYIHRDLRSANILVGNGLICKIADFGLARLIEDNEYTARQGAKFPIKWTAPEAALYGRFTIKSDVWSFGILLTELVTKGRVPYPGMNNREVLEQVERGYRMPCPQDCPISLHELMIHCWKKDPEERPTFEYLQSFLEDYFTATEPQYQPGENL

| Sequence | SH2 binding enrichment [14] | SH2 binding enrichment [15] | SH2 binding enrichment [16] | phosphorylation enrichment [1] | phosphorylation enrichment [2] | phosphorylation enrichment [3] | phosphorylation enrichment [4] | phosphorylation enrichment [5] | phosphorylation enrichment [6] | phosphorylation enrichment [7] | phosphorylation enrichment [8] | phosphorylation enrichment [9] | phosphorylation enrichment [10] | phosphorylation enrichment [11] | phosphorylation enrichment [12] | phosphorylation enrichment [13] |
| --- | --- | --- | --- | --- | --- | --- | --- | --- | --- | --- | --- | --- | --- | --- | --- | --- |
| EVKAQYEDIAQ [KRT1_Y358] | 1.15 | 0.64 | 11.6 | 1.22 | 0.546 | 0.539 | 0.593 | 0.748 | 0.761 | 1.26 | 0.556 | 0.69 | 1.06 | 0.435 | 0.774 | 0.516 |
| KRLDGYVLEGR [IGSF9_Y656] | 0.791 | 0.518 | 0.856 | 0.585 | 0.356 | 0.417 | 0.43 | 0.44 | 0.323 | 0.67 | 0.441 | 0.447 | 0.426 | 0.385 | 0.496 | 0.321 |
| IKETHYMVDRC | 0.78 | 0.623 | 0.465 | 0.992 | 0.472 | 0.704 | 0.555 | 0.579 | 0.47 | 0.992 | 0.455 | 0.461 | 0.654 | 0.481 | 0.581 | 0.464 |
| KFADVYVGICL [B3GALNT1_Y269_E266A] | 0.731 | 0.369 | 0.423 | 1.46 | 0.846 | 0.988 | 0.65 | 0.909 | 0.978 | 1.34 | 0.787 | 0.85 | 1.21 | 0.522 | 1.29 | 1.12 |
| QFLMKYVRSAS [ABCD1_Y337_W339R] | 0.517 | 0.927 | 0.369 | 0.995 | 0.673 | 0.666 | 0.431 | 0.873 | 0.559 | 1.05 | 0.605 | 0.566 | 1.2 | 0.476 | 0.82 | 0.799 |
| EKKKFYDTKIE [CASP5_Y104_YF] | 0.636 | 0.437 | 0.427 | 0.772 | 0.396 | 0.397 | 0.342 | 0.567 | 0.446 | 0.933 | 0.353 | 0.503 | 0.883 | 0.428 | 0.653 | 0.6 |
| KKLAEYGPQGR [CLCA1_Y147] | 0.901 | 0.631 | 0.546 | 0.428 | 0.376 | 0.366 | 0.364 | 0.361 | 0.316 | 0.519 | 0.408 | 0.36 | 0.441 | 0.379 | 0.473 | 0.358 |
| SHSMRYFSTAV [HLA-C_Y31_D33S] | 0.752 | 0.64 | 0.423 | 0.719 | 0.431 | 0.452 | 0.657 | 0.569 | 0.435 | 0.763 | 0.459 | 0.452 | 0.625 | 0.425 | 0.578 | 0.441 |
| RAILDYIASKY [GSTA3_Y74_N73D] | 1.06 | 0.872 | 0.746 | 0.867 | 0.456 | 0.646 | 0.512 | 0.661 | 0.665 | 0.761 | 0.564 | 0.471 | 0.718 | 0.473 | 0.616 | 0.376 |
| FESPRYLQVHI [FANCA_Y488] | 0.912 | 0.781 | 0.648 | 0.928 | 0.782 | 0.461 | 0.534 | 0.61 | 0.676 | 1.04 | 0.408 | 0.564 | 0.867 | 0.495 | 0.949 | 0.411 |
| GIVKAYFVRAR [AIPL1_Y267_YF] | 0.826 | 0.756 | 0.506 | 1.11 | 0.445 | 0.434 | 0.487 | 0.558 | 0.463 | 0.991 | 0.488 | 0.503 | 1.13 | 0.512 | 0.669 | 0.467 |
| PKEQRYSFLQN [GH1_Y68_K67R] | 1.04 | 1.11 | 2.17 | 1.27 | 0.75 | 0.901 | 1.12 | 0.617 | 0.902 | 1.44 | 0.605 | 0.904 | 1.62 | 6.49 | 0.744 | 0.631 |
| IKGIRYLHHRG [GUCY2D_Y656] | 1.39 | 0.966 | 1.01 | 0.466 | 0.423 | 0.358 | 0.348 | 0.363 | 0.432 | 0.469 | 0.415 | 0.344 | 0.597 | 0.376 | 0.497 | 0.439 |
| SSFPDYLAAVD [GLB1_Y154_D151Y_YF] | 0.816 | 2.81 | 0.509 | 1.31 | 0.604 | 0.603 | 0.676 | 0.761 | 0.66 | 1.09 | 0.586 | 0.576 | 0.925 | 0.422 | 0.703 | 0.497 |
| INPIIYAFVVE [CCR5_Y297_G301V] | 0.912 | 0.73 | 0.402 | 1.25 | 4.53 | 3.82 | 1 | 1.29 | 2.66 | 1.5 | 2.42 | 1.78 | 1.2 | 4.13 | 2.37 | 2.59 |
| CKSVHYDLVFL [COL22A1_Y37] | 0.775 | 0.613 | 0.986 | 1.24 | 0.806 | 0.739 | 0.532 | 0.866 | 9.46 | 1.38 | 0.554 | 0.632 | 1.19 | 1.56 | 0.93 | 0.528 |
| DRLASNLDKVR [KRT10_Y160_Y160N] | 0.883 | 0.917 | 0.565 | 0.556 | 0.326 | 0.307 | 0.491 | 0.348 | 0.339 | 0.547 | 0.382 | 0.33 | 0.488 | 0.394 | 0.481 | 0.391 |
| TMEDSYRKQVV [KRAS_Y40_I36M] | 0.728 | 0.48 | 0.356 | 0.69 | 0.556 | 0.367 | 0.366 | 0.595 | 0.403 | 0.774 | 0.273 | 0.425 | 0.663 | 0.411 | 0.594 | 0.38 |
| SGGCSYGSGGG [KRT1_Y539_G537C] | 0.782 | 0.655 | 0.462 | 0.803 | 0.475 | 0.478 | 0.402 | 0.561 | 0.462 | 0.916 | 0.381 | 0.446 | 0.773 | 0.346 | 0.637 | 0.394 |
| LKYAIYFEARE [LAMA2_Y1258] | 0.907 | 0.793 | 0.449 | 2.42 | 1.59 | 1.4 | 0.938 | 1.64 | 0.822 | 2.41 | 1.21 | 1.67 | 3.01 | 0.907 | 1.94 | 1.49 |

Second part, led by results:

| SH2 binding enrichment [14] | SH2 binding enrichment [15] | SH2 binding enrichment [16] | Sequence | phosphorylation enrichment [1] | phosphorylation enrichment [2] | phosphorylation enrichment [3] | phosphorylation enrichment [4] | phosphorylation enrichment [5] | phosphorylation enrichment [6] | phosphorylation enrichment [7] | phosphorylation enrichment [8] | phosphorylation enrichment [9] | phosphorylation enrichment [10] | phosphorylation enrichment [11] | phosphorylation enrichment [12] | phosphorylation enrichment [13] |
| --- | --- | --- | --- | --- | --- | --- | --- | --- | --- | --- | --- | --- | --- | --- | --- | --- |
| 0.93 | 0.623 | 0.643 | SFPHEYGSQEG [RBM10_Y48_R46H_YF] | 0.768 | 0.485 | 0.602 | 0.565 | 1.46 | 0.47 | 0.87 | 0.515 | 0.679 | 0.645 | 0.459 | 0.583 | 0.395 |
| 1.38 | 1.48 | 1.19 | KGPNVCKKTVN [REV3L_Y1156_Y1156C] | 0.644 | 0.457 | 0.525 | 0.529 | 0.741 | 0.376 | 0.863 | 0.378 | 0.516 | 0.944 | 0.415 | 1.13 | 0.54 |
| 0.792 | 1.18 | 1.47 | KKLEVYQSIAD [MYBPC3_Y548] | 0.878 | 0.557 | 0.529 | 0.499 | 0.75 | 0.502 | 0.882 | 0.725 | 1.08 | 0.857 | 0.488 | 0.55 | 0.798 |
| 1.03 | 0.838 | 0.593 | MANFMYKAGPS [MAML2_Y515_YF] | 0.947 | 0.367 | 0.525 | 0.378 | 0.44 | 0.386 | 0.68 | 0.383 | 0.39 | 0.739 | 0.339 | 0.534 | 0.41 |
| 0.859 | 1.14 | 0.517 | ADRLEYSRTGL [MMUT_Y287_G284R] | 0.66 | 0.309 | 0.722 | 0.764 | 0.651 | 0.338 | 0.599 | 0.408 | 0.346 | 1.25 | 0.728 | 0.498 | 0.459 |
| 0.75 | 0.71 | 3.69 | KGSLPYNLILD [PKD1L2_Y406] | 0.695 | 0.468 | 0.418 | 0.552 | 0.616 | 0.488 | 0.713 | 0.438 | 0.44 | 0.687 | 0.421 | 0.743 | 0.542 |
| 0.831 | 1.25 | 2.54 | GYEEAYSVFKK [PAFAH1B1_Y28] | 1.35 | 0.498 | 0.605 | 0.491 | 0.681 | 0.339 | 0.947 | 2.37 | 4.07 | 0.754 | 0.654 | 1.96 | 4.68 |
| 1.04 | 0.787 | 0.644 | KKYPDYIQIAM [SGMS2_Y59] | 1.45 | 10 | 1.69 | 9.52 | 5.93 | 0.52 | 0.949 | 0.448 | 0.581 | 1.46 | 0.435 | 0.729 | 0.483 |
| 1.46 | 1.32 | 0.759 | DFKIIYIAPMR [SNRNP200_Y540] | 1.21 | 0.586 | 0.486 | 0.449 | 0.616 | 0.447 | 1.22 | 0.522 | 0.556 | 1.18 | 0.437 | 4.59 | 0.572 |
| 0.889 | 0.556 | 0.549 | RLYARYFQGDL [PDK3_Y337] | 1.24 | 0.705 | 0.664 | 0.684 | 0.923 | 0.543 | 1.26 | 0.6 | 0.511 | 1.57 | 0.711 | 1.18 | 0.763 |
| 0.813 | 0.625 | 0.415 | MKGDYYRSLAE [YWHAG_Y131_Y133S] | 1.1 | 0.422 | 0.508 | 0.96 | 0.742 | 0.426 | 0.738 | 0.466 | 0.427 | 1.14 | 0.44 | 0.463 | 0.428 |
| 1.05 | 1.58 | 0.59 | MGSFNYLGFAR [SPTLC2_Y178_YF] | 0.63 | 0.942 | 0.493 | 0.504 | 0.603 | 0.431 | 0.661 | 0.439 | 0.485 | 1.15 | 0.443 | 0.521 | 0.535 |
| 1.01 | 0.861 | 0.481 | RSAGKDDVFLI [MECP2_Y120_Y120D_YF] | 0.842 | 0.646 | 0.75 | 0.629 | 0.894 | 0.511 | 1.16 | 0.557 | 0.683 | 0.706 | 0.494 | 0.872 | 0.601 |
